# Source: patent publication US20200054719
# System: thrombin-activatable fibrinolysis inhibitor (TAFI), purified
substance,measurement,value
"E-WE thrombin (E. coli derived, non-glycosylated W215A/E217A thrombin)","activated TAFI, measured as hippuric acid generated from hippuryl-arginine (absorbance at 382 nm)",E-WE thrombin is a poor activator of TAFI
